Assay results as given in article PMC7907143, “SPARC coordinates extracellular matrix remodeling and efficient recruitment to and migration of antigen-specific T cells in the brain following infection” (Scientific Reports, 2021).
Each block holds one molecule with its values, some of them ahead of it.

Assays:
[1] = molecular target: Secreted Protein, Acidic, Rich in Cysteine (SPARC), recombinant murine (murine) (UniProt P07214); test: MST; Monolith NT.115; 4.5 nM NT-495-labelled SPARC, unlabelled chemokine titrated; Ca-MST buffer (50 mM Tris pH 7.4, 150 mM NaCl, 2 mM CaCl2, 0.05% Tween 20); room temperature; three measurements; thermophoresis plus t-jump
CXCL10 = CXCL10 (UniProt P02778); details: cited from earlier work
[2] = molecular target: T1, Secreted Protein, Acidic, Rich in Cysteine (SPARC), recombinant murine (murine, UniProt P07214 18-302, fluorescent label NT-495, covalently linked by NHS coupling (in the thermophoresis only; unlabelled in the gel filtration)); test: MST; Monolith NT.115; 4.5 nM NT-495-labelled SPARC, unlabelled chemokine titrated; Ca-MST buffer (50 mM Tris pH 7.4, 150 mM NaCl, 2 mM CaCl2, 0.05% Tween 20); room temperature; three measurements; thermophoresis plus t-jump; details: both partners purified
T1 construct: SPARC, mouse, recombinant; most likely the mature secreted protein; also called recombinant SPARC; source: bought: R&D Systems or Peprotech (recombinant murine)
T1 sequence (looked up): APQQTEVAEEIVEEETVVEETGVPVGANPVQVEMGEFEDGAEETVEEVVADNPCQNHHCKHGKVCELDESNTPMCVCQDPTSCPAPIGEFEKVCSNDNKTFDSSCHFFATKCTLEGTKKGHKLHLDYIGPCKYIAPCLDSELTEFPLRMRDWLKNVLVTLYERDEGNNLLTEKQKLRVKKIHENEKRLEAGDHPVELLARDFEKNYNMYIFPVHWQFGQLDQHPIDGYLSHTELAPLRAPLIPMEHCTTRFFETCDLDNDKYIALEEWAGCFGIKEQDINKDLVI

Kd [1]: 984 nM
Molecule: CCL21, recombinant murine (from UniProt P84444 24-133) (ligand)

Molecule: CXCL10 (from UniProt P02778)
Kd (CXCL10): 9000 nM

Kd [2]: 1.9 nM
B1: CCL19, recombinant murine (ligand, UniProt O70460 26-108, looked up)
chain: GANDAEDCCLSVTQRPIPGNIVKAFRYLLNEDGCRVPAVVFTTLRGYQLCAPPDQPWVDRIIRRLKKSSAKNKGNSTRRSPVS
notes: CCL19, mouse, recombinant; Most likely the mature chemokine without its signal peptide; source: bought: R&D Systems or Peprotech (recombinant murine)
